This note sets out measurements from US20160090637A1 (published 2016).

The assay concerns the target T1, IL-10R1 S138G homozygous mutant on primary B-CLL cells (human, UniProt Q13651 22-578).
T1 construct: Endogenous receptor on purified B-CLL cells of patients homozygous (GG) for the mutation; also called S159G of the IL-10R1 precursor; GG homozygous mutant
T1 sequence: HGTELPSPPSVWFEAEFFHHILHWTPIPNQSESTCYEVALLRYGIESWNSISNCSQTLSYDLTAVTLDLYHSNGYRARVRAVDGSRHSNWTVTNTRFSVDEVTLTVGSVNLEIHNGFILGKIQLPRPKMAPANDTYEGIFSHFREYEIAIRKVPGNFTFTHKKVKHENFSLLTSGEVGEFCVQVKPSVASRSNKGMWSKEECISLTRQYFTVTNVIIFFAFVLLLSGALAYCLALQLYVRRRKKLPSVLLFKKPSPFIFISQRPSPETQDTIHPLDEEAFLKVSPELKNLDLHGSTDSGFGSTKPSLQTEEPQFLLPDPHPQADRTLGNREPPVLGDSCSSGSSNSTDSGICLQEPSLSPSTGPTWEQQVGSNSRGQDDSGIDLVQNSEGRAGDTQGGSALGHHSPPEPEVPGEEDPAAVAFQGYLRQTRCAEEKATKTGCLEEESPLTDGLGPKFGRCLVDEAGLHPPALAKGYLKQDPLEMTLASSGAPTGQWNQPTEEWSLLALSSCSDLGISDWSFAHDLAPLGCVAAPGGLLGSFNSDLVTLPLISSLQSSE
Put plainly: flow cytometry, biotinylated IL-10 plus avidin-FITC on primary B-CLL cells; weaker than on wild-type cells. As to the method: IL-10 binding with B-CLL cells was determined using Flurokine® Biotinylated Human Interleukin 10 Kit (R&D Systems) per the protocol. 25 μl (1×10⁵) purified B-CLL cells were incubated with 10 μl biotinylated negative control reagents or biotinylated IL-10 for 1-hour at 2-8° C., then incubated with 10 μl of avidin-FITC for a further 30 minutes at 2-8° C. in the dark. Wash the cells twice with 2 ml of 1×RDF buffer 2 times. Add 200 μl 1×RDF buffer into each tube and do flow cytometry analysis.

B1: Biotinylated Human Interleukin 10 (Flurokine kit, R&D Systems) (ligand, UniProt P22301 19-178, looked up)
chain: SPGQGTQSENSCTHFPGNLPNMLRDLRDAFSRVKTFFQMKDQLDNLLLKESLLEDFKGYLGCQALSEMIQFYLEEVMPQAENQDPDIKAHVNSLGENLKTLRLRLRRCHRFLPCENKSKAVEQVKNAFNKLQEKGIYKAMSEFDIFINYIEAYMTMKIRN
modifications: biotinylated (sites not given) in the binding assay; unlabelled rh-IL-10 in the culture assays
notes: The STAT assays used rh-IL-10 (R&D Systems) at 10 ng/ml; also called IL-10; rh-IL-10
As to B1, the binding result was “binds”.
